T1: GST-Human-stalk fusion protein (Schistosoma japonica; human, UniProt P01833)
T1 chain: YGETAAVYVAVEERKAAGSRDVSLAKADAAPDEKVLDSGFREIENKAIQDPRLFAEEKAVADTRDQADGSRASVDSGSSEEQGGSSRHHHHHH


Tests used:
[1] = biological target: T1, GST-Human-stalk fusion protein; assay: SPR (BIAcore), D6-GST captured by immobilized anti-GST antibody, 1:1 Langmuir global fit
[2] = biological target: GST-Rat-stalk fusion protein (Schistosoma japonica; rat) (UniProt P15083); assay: as above
[3] = biological target: pIgR expressed in transfected MDCK cells (Examples 6 and 7)

Binder | Ka [1] | Kd [1] | Ka [2] | Kd [2] | apical to basolateral (reverse) transcytosis after 16 hours [3] | basolateral to apical (forward) transcytosis after 16 hours [3] | koff [1]
sFv5AF-Cys purified dimer (scFv) scFv: DYKAKQVQLVQSGGGVVQPGRSLRLSCAASGFTFSSYAMHWVRQAPGKGLEWVSAISGSGGSTYYADSVKGRFTISRDNAKNSLYLQMNSLRAEDTAVYYCARDTRGYFDLWGRGTLVTVSSGGGGSGGGGSGGGGSSELTQDPAMSVALGQTVRITCQGDSLRKYHASWYQQRPRQAPRLVVYGKNERPSGIPERFSGSTSGDTASLTISGLQAEDEADYYCHSRDSNADLVVFGGGTKVTVLGAAAEQKLISEEDLNGAAHHHHHH | 5.02e+08 M⁻¹ | 1.99 nM | 5.01e+08 M⁻¹ | 2 nM | 10% | < 10% | –
sFv5AF-Cys (starting material, mixture of monomer and dimer) (scFv) scFv: DYKAKQVQLVQSGGGVVQPGRSLRLSCAASGFTFSSYAMHWVRQAPGKGLEWVSAISGSGGSTYYADSVKGRFTISRDNAKNSLYLQMNSLRAEDTAVYYCARDTRGYFDLWGRGTLVTVSSGGGGSGGGGSGGGGSSELTQDPAMSVALGQTVRITCQGDSLRKYHASWYQQRPRQAPRLVVYGKNERPSGIPERFSGSTSGDTASLTISGLQAEDEADYYCHSRDSNADLVVFGGGTKVTVLGAAAEQKLISEEDLNGAAHHHHHH | 6.71e+08 M⁻¹ | 1.49 nM | 4.36e+08 M⁻¹ | 2.3 nM | – | – | 0.00145 s⁻¹
sFv5AF-Cys purified monomer (scFv) scFv: DYKAKQVQLVQSGGGVVQPGRSLRLSCAASGFTFSSYAMHWVRQAPGKGLEWVSAISGSGGSTYYADSVKGRFTISRDNAKNSLYLQMNSLRAEDTAVYYCARDTRGYFDLWGRGTLVTVSSGGGGSGGGGSGGGGSSELTQDPAMSVALGQTVRITCQGDSLRKYHASWYQQRPRQAPRLVVYGKNERPSGIPERFSGSTSGDTASLTISGLQAEDEADYYCHSRDSNADLVVFGGGTKVTVLGAAAEQKLISEEDLNGAAHHHHHH | 1.77e+08 M⁻¹ | 5.64 nM | 1.77e+08 M⁻¹ | 5.63 nM | < 5% | – | 0.00241 s⁻¹
